The results in this text go back to PMC10786891, “Massively parallel profiling of RNA-targeting CRISPR-Cas13d”.

Numbering of substitutions follows the chain as printed. Numbers in names are those of the source.

The labels stand for the following.
T1: EsCas13d, nuclease-dead (Eubacterium siraeum, UniProt B0MS50, R295A;H300A;R849A;H854A)
T1 sequence: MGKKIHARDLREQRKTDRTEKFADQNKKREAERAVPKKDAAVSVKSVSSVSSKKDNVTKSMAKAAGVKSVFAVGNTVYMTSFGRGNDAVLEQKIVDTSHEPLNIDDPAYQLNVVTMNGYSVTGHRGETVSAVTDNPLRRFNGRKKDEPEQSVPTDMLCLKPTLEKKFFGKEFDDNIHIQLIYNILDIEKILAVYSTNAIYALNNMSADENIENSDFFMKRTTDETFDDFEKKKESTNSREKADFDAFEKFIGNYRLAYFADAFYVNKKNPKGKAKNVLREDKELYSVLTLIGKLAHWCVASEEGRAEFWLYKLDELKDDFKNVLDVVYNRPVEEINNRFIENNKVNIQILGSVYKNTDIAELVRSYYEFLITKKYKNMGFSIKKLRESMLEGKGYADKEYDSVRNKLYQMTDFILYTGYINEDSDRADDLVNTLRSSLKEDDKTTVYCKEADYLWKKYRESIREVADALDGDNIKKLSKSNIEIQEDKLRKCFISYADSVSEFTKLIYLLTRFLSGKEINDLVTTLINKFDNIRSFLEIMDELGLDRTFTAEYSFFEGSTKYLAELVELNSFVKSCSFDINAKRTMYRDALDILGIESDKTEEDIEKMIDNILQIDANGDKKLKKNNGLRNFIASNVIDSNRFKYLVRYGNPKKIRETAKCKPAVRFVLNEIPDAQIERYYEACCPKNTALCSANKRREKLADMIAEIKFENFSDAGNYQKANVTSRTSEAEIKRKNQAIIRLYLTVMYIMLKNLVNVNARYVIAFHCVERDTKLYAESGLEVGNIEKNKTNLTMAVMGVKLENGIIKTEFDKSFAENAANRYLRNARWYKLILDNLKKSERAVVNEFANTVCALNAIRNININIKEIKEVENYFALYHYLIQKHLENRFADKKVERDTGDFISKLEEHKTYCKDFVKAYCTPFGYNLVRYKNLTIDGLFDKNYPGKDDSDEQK

B1: target 3 insG 3' of 22,insU 3' of 3 (mixed)
RNA 1: CACCCGUGCAAAAUUGCAGGGGUCUAAAACGACCUGAAUAUUUCAGAUCAAA
RNA 2: GGGAAUGGAUCCACAUCUACGAAUUCGUUUGUUGAUCUGAAAUAUUCAGGUUCUGCAGAUCGGAAGAGCACACGU
B2: target 3 del8 (mixed)
RNA 1: B1 RNA 1
RNA 2: GGGAAUGGAUCCACAUCUACGAAUUCGUUUUUGAUCUGAAAUAUCAGGUCUGCAGAUCGGAAGAGCACACGU
B3: target 3 C6U,U7A (mixed)
RNA 1: B1 RNA 1
RNA 2: GGGAAUGGAUCCACAUCUACGAAUUCGUUUUUGAUCUGAAAUAUAUAGGUCUGCAGAUCGGAAGAGCACACGU
B4: target 3 insC 3' of 5 (mixed)
RNA 1: B1 RNA 1
RNA 2: GGGAAUGGAUCCACAUCUACGAAUUCGUUUUUGAUCUGAAAUAUUCACGGUCUGCAGAUCGGAAGAGCACACGU
B5: target 3 insG 3' of 11,insA 3' of 6 (mixed)
RNA 1: B1 RNA 1
RNA 2: GGGAAUGGAUCCACAUCUACGAAUUCGUUUUUGAUCUGAAAGUAUUCAAGGUCUGCAGAUCGGAAGAGCACACGU
B6: target 3 insG 3' of 7,insG 3' of 5 (mixed)
RNA 1: B1 RNA 1
RNA 2: B5 RNA 2 with G42U, U43A, A44U, U46G, A49G
B7: target 3 insG 3' of 8,insG 3' of 5 (mixed)
RNA 1: B1 RNA 1
RNA 2: B5 RNA 2 with G42U, U43A, A44U, U45G, A49G
B8: target 3 insA 3' of 10,insA 3' of 2 (mixed)
RNA 1: B1 RNA 1
RNA 2: B5 RNA 2 with G42U, U43A, A49G, G51U, U52A
B9: target 3 del1 (mixed)
RNA 1: B1 RNA 1
RNA 2: B2 RNA 2 with C45U, A46C, G47A, U49G, C50U
B10: target 3 del2,del8 (mixed)
RNA 1: B1 RNA 1
RNA 2: GGGAAUGGAUCCACAUCUACGAAUUCGUUUUUGAUCUGAAAUAUCAGGCUGCAGAUCGGAAGAGCACACGU
B11: target 3 insC 3' of 22,insG 3' of 2 (mixed)
RNA 1: B1 RNA 1
RNA 2: B1 RNA 2 with G31C, U52G
B12: target 3 U2G,A12C (mixed)
RNA 1: B1 RNA 1
RNA 2: B3 RNA 2 with A40C, A45U, U46C, U50G
B13: target 3 insA 3' of 20,insU 3' of 19 (mixed)
RNA 1: B1 RNA 1
RNA 2: GGGAAUGGAUCCACAUCUACGAAUUCGUUUUUAGUAUCUGAAAUAUUCAGGUCUGCAGAUCGGAAGAGCACACGU
B14: target 3 U2G,A13U (mixed)
RNA 1: B1 RNA 1
RNA 2: B3 RNA 2 with A39U, A45U, U46C, U50G
B15: target 3 complement block 5-7 (mixed)
RNA 1: B1 RNA 1
RNA 2: B3 RNA 2 with U46G, A47U
B16: target 3 insA 3' of 21,insA 3' of 2 (mixed)
RNA 1: B1 RNA 1
RNA 2: B1 RNA 2 with G31U, U32A, U52A
B17: target 3 insA 3' of 14,insU 3' of 5 (mixed)
RNA 1: B1 RNA 1
RNA 2: B5 RNA 2 with G42A, A49U
B18: target 3 del2 (mixed)
RNA 1: B1 RNA 1
RNA 2: B2 RNA 2 with C45U, A46C, G47A, U49G
B19: target 3 U2G,A11C (mixed)
RNA 1: B1 RNA 1
RNA 2: B3 RNA 2 with A41C, A45U, U46C, U50G
B20: target 3 insC 3' of 22,insG 3' of 5 (mixed)
RNA 1: B1 RNA 1
RNA 2: B1 RNA 2 with G31C, U51G
B21: target 3 insC 3' of 18,insC 3' of 11 (mixed)
RNA 1: B1 RNA 1
RNA 2: B13 RNA 2 with A33G, G34A, U35C, A36U, U37C, C38U, U39G, G40A, A43C
B22: target 3 G3C,G4A (mixed)
RNA 1: B1 RNA 1
RNA 2: B3 RNA 2 with A45U, U46C, G48A, G49C
B23: target 3 insA 3' of 22,insA 3' of 2 (mixed)
RNA 1: B1 RNA 1
RNA 2: B1 RNA 2 with G31A, U52A
B24: target 3 U10C (mixed)
RNA 1: B1 RNA 1
RNA 2: B3 RNA 2 with U42C, A45U, U46C
B25: target 3 U21G,U22A (mixed)
RNA 1: B1 RNA 1
RNA 2: B3 RNA 2 with U30A, U31G, A45U, U46C
B26: target 3 insU 3' of 22,insA 3' of 19 (mixed)
RNA 1: B1 RNA 1
RNA 2: B13 RNA 2 with A33U, U35A
B27: target 3 insG 3' of 9,insC 3' of 3 (mixed)
RNA 1: B1 RNA 1
RNA 2: B5 RNA 2 with G42U, U43A, A44G, A49G, G51C
B28: target 1 insC 3' of 22,insU 3' of 6 (mixed)
RNA 1: CACCCGUGCAAAAAUGCAGGGGUCUAAAACUGAGCGGAUAACCUCUCUAUGG
RNA 2: GGGAAUGGAUCCACAUCUACGAAUUCGUACCCAUAGAGAGGUUAUCCUGCUCACCGAGAUCGGAAGAGCACACGU
B29: target 1 insC 3' of 22,insG 3' of 11 (mixed)
RNA 1: B28 RNA 1
RNA 2: B28 RNA 2 with U43G, A44U, U45A, C46U, U48C
B30: target 1 insU 3' of 22,insU 3' of 4 (mixed)
RNA 1: B28 RNA 1
RNA 2: B28 RNA 2 with C31U, U48G, G49C, C50U

The target of this data set is T1, EsCas13d, nuclease-dead. Nature of the data set: crRNA (strand 1, pre-loaded); Mg2+; 40 mM Tris-HCl pH 7.5, 150 mM NaCl, 6 mM MgCl2, 1 mM DTT, 0.1% Tween-20, 0.2 mg/ml BSA; 25 C; 10 min per concentration, then washed. As to conditions: tags: His6-TwinStrep-SUMO cleaved; N-terminal SNAP kept (SNAP-Surface 488); label: 3' end held by stalled T7 RNA polymerase.
The Kd is the free concentration of one partner at which half of the binding sites on the other are occupied at equilibrium, for simple one-to-one binding. Low values mean a tighter complex, high ones a looser complex. Consider B1, for which binding was characterised by a dissociation constant (Kd) of 0.068 ± 0.026 µM.

In turn, B2 yielded a Kd of around 0.114 µM.

Molecule B3 registered a Kd of 0.04 ± 0.00425 µM.

With B4, the Kd was 0.0192 ± 0.00175 µM.

Take B5: the affinity, expressed as Kd, was 0.0915 ± 0.022 µM.

For B6, the Kd turned out to be 0.0465 ± 0.0075 µM.

B7 returned a Kd of 0.062 ± 0.011 µM.

Molecule B8 registered a dissociation constant Kd of 0.056 ± 0.0085 µM.

The molecule B9 returned an equilibrium dissociation constant (Kd) of 0.0272 ± 0.00255 µM.

Molecule B10 gave an equilibrium dissociation constant (Kd) of 0.047 ± 0.0085 µM.

In the case of B11, the Kd is 0.059 ± 0.011 µM.

B12 showed an equilibrium dissociation constant (Kd) of 0.0235 ± 0.004 µM.

On to B13, for which the Kd was 0.0625 ± 0.0145 µM.

On to B14, for which the affinity, expressed as Kd, was 0.0465 ± 0.0135 µM.

Turning to B15, the Kd worked out at 0.0391 ± 0.0029 µM.

For the molecule B16, the Kd was determined as 0.0303 ± 0.0026 µM.

Take B17: the Kd was 0.0695 ± 0.0125 µM.

In turn, B18 had a Kd of 0.0091 ± 0.0007 µM.

The molecule B19 came in with a Kd of 0.063 ± 0.0255 µM.

Regarding B20, the Kd worked out at 0.0935 ± 0.026 µM.

As to B21, binding was put at a Kd of 0.037 ± 0.005 µM.

B22: the Kd was 0.0066 ± 0.00065 µM.

With B23, the dissociation constant (Kd) came out at 0.0249 ± 0.00235 µM.

Turning to B24, the affinity, expressed as Kd, was 0.088 ± 0.022 µM. This Kd lies about 3.5-fold higher than the previous one.

Molecule B25 gave a Kd of 0.0575 ± 0.0155 µM.

In the case of B26, the Kd is 0.077 ± 0.016 µM.

As for B27, binding was put at a Kd of 0.042 ± 0.007 µM.

The molecule B28 came in with a Kd of 0.02 ± 0.002 µM. This Kd is about 2.1-fold lower than that of the molecule before.

B29 had a Kd of 0.041 ± 0.004 µM.

Molecule B30 displayed a Kd of 0.032 ± 0.005 µM.
